Reference: patent publication US20180258187A1

Legend:
[1] = target: EBV-LMP2 peptide/HLA-A*02:01 complex as naturally presented on HLA-A*02:01+ EBV+ cells (BLCL, tumour cell lines) (human; Epstein-Barr virus); test: cell-based or functional assay
[2] = target: EBV-LMP2 peptide presented by HLA-A*02:06 on artificial antigen presenting cells (human; Epstein-Barr virus)
[3] = target: P19 peptide (mixture of 19 endogenous control peptides) loaded T2 cell; test: flow cytometry, phage antibody on peptide loaded T2 cells

B1: LMP2-38 Dimeric BsAb (bispecific antibody, part only)
VH: QSALTQPASVSGSPGQSITISCTGTSSDVGSYNDVSWYQQHPGKAPKLMIYDVSNRPSGVSNRFSGSKSGNTASLTISGLQTEDEADYYCNSYTSSNTYVFGTGTKVTVLG
VL: QVQLVQSGAEVKKPGASVQVSCRASGYTITSYYMHWVRQAPGQGLEWMGVINPNAGSTRYAQKFQGRVTMSTDTSTSTVYMALSSLRSDDTAVYYCARGMYRMYDWGQGTLVTVSS
chain 1: DVQLVQSGAEVKKPGASVKVSCKASGYTFTRYTMHWVRQAPGQGLEWIGYINPSRGYTNYADSVKGRFTITTDKSTSTAYMELSSLRSEDTATYYCARYYDDHYSLDYWGQGTTVTVSSGEGTSTGSGGSGGSGGADDIVLTQSPATLSLSPGERATLSCRASQSVSYMNWYQQKPGKAPKRWIYDTSKVASGVPARFSGSGSGTDYSLTINSLEAEDAATYYCQQWSSNPLTFGGGTKVEIK
chain 2: RTPLGDTTHTSGMVSKLSQLQTELLAALLESGLSKEALIQALGEGSGGAPHHHHHH
Binder B1 has a % Max Killing, DT BLCL (T cell dependent cytotoxicity, 51Cr release) [1] of 39.9%, a % Max Killing, F BLCL (T cell dependent cytotoxicity, 51Cr release) [1] of 25.8% and a % Max Killing, HONE-1-A2 (T cell dependent cytotoxicity, 51Cr release) [1] of 16.8%. It also gave a % Max Killing, RPMI-6666 (T cell dependent cytotoxicity, 51Cr release) [1] of 26.5%, an EC50 (µg/mL), DT BLCL (T cell dependent cytotoxicity) [1] of 0.025 µg/mL and an EC50 (µg/mL), F BLCL (T cell dependent cytotoxicity) [1] of 0.033 µg/mL. It also gave an EC50 (µg/mL), HONE-1-A2 (T cell dependent cytotoxicity) [1] of 0.024 µg/mL and an EC50 (µg/mL), RPMI-6666 (T cell dependent cytotoxicity) [1] of 0.037 µg/mL.

B2: LMP2-38 IgG1 (antibody, V domains shown)
VH: QVQLVQSGAEVKKPGASVQVSCRASGYTITSYYMHWVRQAPGQGLEWMGVINPNAGSTRYAQKFQGRVTMSTDTSTSTVYMALSSLRSDDTAVYYCARGMYRMYDWGQGTLVTVSS
VL: QSALTQPASVSGSPGQSITISCTGTSSDVGSYNDVSWYQQHPGKAPKLMIYDVSNRPSGVSNRFSGSKSGNTASLTISGLQTEDEADYYCNSYTSSNTYVFGTGTKVTVLG
Work on B2 yielded a number beside the legend entry (name not given; FL2-H histogram) [2] of 81.5.

B3: LMP2-38-11 (antibody, name in Kabat numbering, V domains shown)
VH: QVQLVQSGAEVKKPGASVQVSCRASEYTITSYYMHWVRQAPGQGLEWMGVVNPNAGSTRYAQKFQGRVTMSTDTSTSTVYMALSSLRSDDTAVYYCARGMYRMYDWGQGTLVTVSS
VL: QSALTQPASVSGSPGQSITISCTGTSSDVGSYNDVSWYQQHPGKAPKLMIYDVSNRPSGVSNRFSGSKSGNTASLTISGLQTEDEADYYCNSYTSSNTYVFGTGTKVTVLG
For B3, the ratio of specific phage antibody FACS signal to negative control FACS signal [3] was 2 to 10.
